Experimental findings from doi:10.1101/2020.12.31.424863 (bioRxiv, 2020) are described below.

Sequences and labels used below:
B1: Smc5 (subunit of the budding yeast Smc5/6 holo-complex) (natural protein)
chain: MTSLIDLGRYVERTHHGEDTEPRSKRVKIAKPDLSSFQPGSIIKIRLQDFVTYTLTEFNLSPSLNMIIGPNGSGKSTFVCAVCLGLAGKPEYIGRSKKVEDFIKNGQDVSKIEITLKNSPNVTDIEYIDARDETIKITRIITRSKRRSDYLINDYQVSESVVKTLVAQLNIQLDNLCQFLSQERVEEFARLKSVKLLVETIRSIDASLLDVLDELRELQGNEQSLQKDLDFKKAKIVHLRQESDKLRKSVESLRDFQNKKGEIELHSQLLPYVKVKDHKEKLNIYKEEYERAKANLRAILKDKKPFANTKKTLENQVEELTEKCSLKTDEFLKAKEKINEIFEKLNTIRDEVIKKKNQNEYYRGRTKKLQATIISTKEDFLRSQEILAQTHLPEKSVFEDIDIKRKEIINKEGEIRDLISEIDAKANAINHEMRSIQRQAESKTKSLTTTDKIGILNQDQDLKEVRDAVLMVREHPEMKDKILEPPIMTVSAINAQFAAYLAQCVDYNTSKALTVVDSDSYKLFANPILDKFKVNLRELSSADTTPPVPAETVRDLGFEGYLSDFITGDKRVMKMLCQTSKIHTIPVSRRELTPAQIKKLITPRPNGKILFKRIIHGNRLVDIKQSAYGSKQVFPTDVSIKQTNFYQGSIMSNEQKIRIENEIINLKNEYNDRKSTLDALSNQKSGYRHELSELASKNDDINREAHQLNEIRKKYTMRKSTIETLREKLDQLKREARKDVSQKIKDIDDQIQQLLLKQRHLLSKMASSMKSLKNCQKELISTQILQFEAQNMDVSMNDVIGFFNEREADLKSQYEDKKKFVKEMRDTPEFQSWMREIRSYDQDTKEKLNKVAEKYEEEGNFNLSFVQDVLDKLESEIAMVNHDESAVTILDQVTAELRELEHTVPQQSKDLETIKAKLKEDHAVLEPKLDDIVSKISARFARLFNNVGSAGAVRLEKPKDYAEWKIEIMVKFRDNAPLKKLDSHTQSGGERAVSTVLYMIALQEFTSAPFRVVDEINQGMDSRNERIVHKAMVENACAENTSQYFLITPKLLTGLHYHEKMRIHCVMAGSWIPNPSEDPKMIHFGETSNYSFD
B3: Nse6 (subunit of the budding yeast Smc5/6 holo-complex) (natural protein)
chain: MGSVNSSPNEEFETVPDSQISGFDSPLIPTSVGSYFRDDDDDEKVHPNFISDPENDSLNSDEEFSSLENSDLNLSGAKAESGDDFDPILKRTIISKRKAPSNNEDEEIVKTPRKLVNYVPLKIFNLGDSFDDTITTTVAKLQDLKKEILDSPRSNKSIVITSNTVAKSELQKSIKFSGSIPEIYLDVVTKETISDKYKDWHFISKNCHYEQLMDLEMKDTAYSFLFGSSRSQGKVPEFVHLKCPSITNLLVLFGVNQEKCNSLKINYEKKENSRYDNLCTIFPVNKMLKFLMYFYSDDDNDDVREFFLKAFICLILDRKVFNAMESDHRLCFKVLELFNEAHFINSYFEIVDKNDFFLHYRLLQIFPHLQSALLRRRFSEKQGRTETIQQNIIKEFNEFFDCKNYKNLLYFILTMYGSKFIPFGPKCQVTEYFKDCILDISNETTNDVEISILKGILNLFSKIR
B4: Nse5 (subunit of the budding yeast Smc5/6 holo-complex) (natural protein)
chain: MDGALINSVLYVSPRNGAHYFVELTEKHLLAFEMLNSMCLLENYDHVLLFLECQFGKSHNLAVIPFDIILVLFTLSTLSEYYKEPILRANDPYNTSRETLSRRALKLLQKYLAILKEFDSEQYNLYDLELLRCQFFLAIDTLTPKKQKWGFDRFRRTKSESGVTYRQNASVDPELDQAKTFKNPYRSYISCLEQRNTILGNRLLNLKLNEPGEFINMILWTLSNSLQESTPLFLSSHEIWMPLLEILIDLFSCRQDYFIQHEVAQNVSKSLFVQRLSESPLAVFFESLNTRNFANRFSEYVFLNCDYKLPSDNYATPVHPVYNGENTIVDTYIPTIKCSPLYKSQKSLALRRKLIGSCFKLLLRVPDGHRLITPRIVADDVIQGISRTLASFNDILQFKKFFMTENLSQESYFIPLLAEGTLSEILKDTQECVVILTLVENLSDGVSFCNEVIGLVKSKCFAFTEQCSQASYEEAVLNIEKCDVCLLVLLRYLLHLIGTEAILDAKEQLEMLHAIEKNDSGRRQWAKALNLGNDPPLLYPIVSQMFGVHDKSVIIE

The target in assay [1] is T1, Smc6 (subunit of the budding yeast Smc5/6 holo-complex) (budding yeast, UniProt Q12749 1-1114).
T1 sequence: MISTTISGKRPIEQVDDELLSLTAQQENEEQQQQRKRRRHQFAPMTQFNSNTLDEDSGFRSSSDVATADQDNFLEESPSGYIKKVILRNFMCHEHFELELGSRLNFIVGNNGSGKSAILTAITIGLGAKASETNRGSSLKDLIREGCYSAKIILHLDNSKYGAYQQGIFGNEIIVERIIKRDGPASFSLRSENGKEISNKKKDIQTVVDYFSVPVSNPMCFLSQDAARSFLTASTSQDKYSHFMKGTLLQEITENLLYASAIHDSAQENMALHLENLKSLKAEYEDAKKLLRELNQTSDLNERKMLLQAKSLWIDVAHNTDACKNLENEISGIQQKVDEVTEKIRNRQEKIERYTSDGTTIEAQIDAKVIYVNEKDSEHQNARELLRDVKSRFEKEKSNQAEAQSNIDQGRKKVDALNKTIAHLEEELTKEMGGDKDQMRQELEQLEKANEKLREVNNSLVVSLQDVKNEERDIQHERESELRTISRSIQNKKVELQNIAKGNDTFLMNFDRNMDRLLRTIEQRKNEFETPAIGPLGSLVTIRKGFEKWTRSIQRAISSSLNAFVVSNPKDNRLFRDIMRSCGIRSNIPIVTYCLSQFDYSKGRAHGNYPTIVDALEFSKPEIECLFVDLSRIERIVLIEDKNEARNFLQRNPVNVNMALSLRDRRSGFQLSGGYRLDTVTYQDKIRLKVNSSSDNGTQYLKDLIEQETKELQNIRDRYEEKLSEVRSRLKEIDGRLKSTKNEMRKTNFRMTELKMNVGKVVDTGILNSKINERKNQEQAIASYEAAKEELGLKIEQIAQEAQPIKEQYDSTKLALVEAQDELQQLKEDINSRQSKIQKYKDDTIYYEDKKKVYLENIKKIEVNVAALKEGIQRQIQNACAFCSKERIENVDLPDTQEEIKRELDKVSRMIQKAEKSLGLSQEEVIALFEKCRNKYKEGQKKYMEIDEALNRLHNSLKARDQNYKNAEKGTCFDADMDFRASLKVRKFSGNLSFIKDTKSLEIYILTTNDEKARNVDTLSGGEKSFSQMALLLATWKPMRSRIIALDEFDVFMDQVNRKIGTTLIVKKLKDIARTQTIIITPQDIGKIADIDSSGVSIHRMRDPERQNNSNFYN
Nature of the assay: negative stain EM.

Assay [2] concerns the target B1. Nature of the assay: cross-linking.
Assay [3] deals with T1, Smc6 (subunit of the budding yeast …). The assay can be described thus: cross-linking.
The target in assay [4] is B3. The assay can be described thus: cross-linking.
The target in assay [5] is B4. The assay can be described thus: cross-linking.

Take B1: in assay [1], the binding result is listed as “binds”.

B2: Nse2 SUMO ligase (subunit of the budding yeast Smc5/6 holo-complex) (natural protein)
chain: MALNDNPIPKSVPLHPKSGKYFHNLHARDLSNIYQQCYKQIDETINQLVDSTSPSTIGIEEQVADITSTYKLLSTYESESNSFDEHIKDLKKNFKQSSDACPQIDLSTWDKYRTGELTAPKLSELYLNMPTPEPATMVNNTDTLKILKVLPYIWNDPTCVIPDLQNPADEDDLQIEGGKIELTCPITCKPYEAPLISRKCNHVFDRDGIQNYLQGYTTRDCPQAACSQVVSMRDFVRDPIMELRCKIAKMKESQEQDKRSSQAIDVL
For the molecule B2, the binding result in assay [2], in assay [3] and in assay [4] was “binds” each time.
In the case of B3, the binding result in assay [2], in assay [3] and in assay [5] was “binds” each time.
B4: the binding result in assay [2] and in assay [3] was “binds” in each case.
